The target of this experiment is Tbx20^eh1mut-EGFP (mouse) (UniProt Q9ES03). The experiment in a line: affinity purification with mass spectrometry.

Some results are limits rather than exact numbers.

Chain of UniProt Q9ES03 (Q9ES03 whole entry F18L/S19I): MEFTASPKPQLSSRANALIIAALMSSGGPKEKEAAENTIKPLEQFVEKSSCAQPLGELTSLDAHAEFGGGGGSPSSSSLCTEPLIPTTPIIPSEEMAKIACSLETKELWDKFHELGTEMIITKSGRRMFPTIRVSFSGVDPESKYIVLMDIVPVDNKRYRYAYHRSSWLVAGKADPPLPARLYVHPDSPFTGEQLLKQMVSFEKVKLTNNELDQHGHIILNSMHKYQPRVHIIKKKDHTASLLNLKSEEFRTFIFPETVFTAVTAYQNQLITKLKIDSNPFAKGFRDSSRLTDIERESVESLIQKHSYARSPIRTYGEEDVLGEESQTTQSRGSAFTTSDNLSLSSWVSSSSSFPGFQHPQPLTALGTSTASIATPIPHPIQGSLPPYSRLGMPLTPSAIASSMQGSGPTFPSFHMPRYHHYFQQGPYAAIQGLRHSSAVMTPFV

As to “Transducin-like enhancer of split 1 (from UniProt Q04724 1-770) (natural protein)”, the fold decrease in eh1mut against wild-type Tbx20 (MS1-based) was over 10 fold.

In turn, “Transducin-like enhancer of split 3 (from UniProt Q04726 1-772) (natural protein)” displayed a fold decrease in eh1mut against wild-type Tbx20 (MS1-based) of over 10 fold.
